Patent US20240182547A1
Substitutions are numbered along the chain they refer to.

B1: 12A1 (antibody, V domains shown)
VH: EVQLVESGGGLIQPGGSLRLSCAGSGFTFSSYTMHWVRQAPGKGLEWVSSITGGSSYVDYSASVKGRFTISRDNAQSSLYLQMNSLRAEDTAVYYCARDDYGSGSYSNWFDPWGQGTLVTVSS
VL: QSVLTQPPSVSGAPGQRVTISCTGSSSDIGAGYDVHWYQQLPGTAPKLLIFANTNRPSGVPDRFSGSKSGASASLAITGLQADDEADYYCQSYDRSLSHVFGTGTKVTVLG
B2: 2H1 (antibody, V domains shown)
VH: B1 VH with E1Q, Q3T, V5K, L11V, I12V, P14S, G16R, G24A
VL: B1 VL with D28N, T44R, F51Y, P61A
B3: #12m (antibody, V domains shown)
VH: EVQLVESGGGLVKPGGSLRLSCAGSGFAFSSYTMHWVRQAPGKGLEWVSSITGGSSYLDYAHSVKGRFTISRDNGQNSLFLQMNSLRTEDTAVYYCARDDYGSGSYSNYFDPWGQGTLVTVSS
VL: B1 VL with D28N, L41V, A52G, N53S, A82T, D83E
B4: 10E7 (antibody, V domains shown)
VH: EVQLVESGGGLVKPGGSLRLSCAASGFTFTSYRMHWVRQAPGKGLEWVSSITGGGNYIEYADSVKGRFTISRDNAKNSLDLQMNSLRAEDTAIYYCARDMYGLGSYYSPNYFDSWGQGTLVTVSS
VL: B1 VL with D28N, T44R
B5: 12B11 (antibody, V domains shown)
VH: EVQLVESGGGVVQPGRSLRLACAASGFTFNSYAMHWVRQAPGKGLEWVSSITGGSSYVDYSASVKGRFTISRDNAQSSLYLQMNSLRAEDTAVYYCARDMYGLGSYYSPNYFDPWGQGTLVTVSS
VL: B1 VL with Q1S, S2Y, V3E, D28N, T44R, A71T, D83E, R95S, H99Y
B6: 3H8 (antibody, V domains shown)
VH: B1 VH with I12V, Q13K, Q115R, L118T
VL: B1 VL with S2P, P8L, V10A, A13T, D28N, T44R, A71T, D83E
B7: 4G1 (antibody, V domains shown)
VH: QVTLKESGGGLVKPGGSLRLSCAASGFRLSSYGMNWVRQAPGKGLEWVSSISASSSFINYADSVRDRFTISRDNAKNSLYLQMNSLRAEDTAVYYCARDDYGSGSYSNWFDPWGQGTLVTVSS
VL: B1 VL with S25N, D28N, I29L, T44R, G79S

Molecular target: recombinant F-protein (respiratory syncytial virus (RSV)) (UniProt P03420)
Experiment: SPR Biacore T-200, antibody captured on protein A chip, F-protein as analyte

Sequence of recombinant F-protein (respiratory syncytial virus (RSV)) (P03420 whole entry): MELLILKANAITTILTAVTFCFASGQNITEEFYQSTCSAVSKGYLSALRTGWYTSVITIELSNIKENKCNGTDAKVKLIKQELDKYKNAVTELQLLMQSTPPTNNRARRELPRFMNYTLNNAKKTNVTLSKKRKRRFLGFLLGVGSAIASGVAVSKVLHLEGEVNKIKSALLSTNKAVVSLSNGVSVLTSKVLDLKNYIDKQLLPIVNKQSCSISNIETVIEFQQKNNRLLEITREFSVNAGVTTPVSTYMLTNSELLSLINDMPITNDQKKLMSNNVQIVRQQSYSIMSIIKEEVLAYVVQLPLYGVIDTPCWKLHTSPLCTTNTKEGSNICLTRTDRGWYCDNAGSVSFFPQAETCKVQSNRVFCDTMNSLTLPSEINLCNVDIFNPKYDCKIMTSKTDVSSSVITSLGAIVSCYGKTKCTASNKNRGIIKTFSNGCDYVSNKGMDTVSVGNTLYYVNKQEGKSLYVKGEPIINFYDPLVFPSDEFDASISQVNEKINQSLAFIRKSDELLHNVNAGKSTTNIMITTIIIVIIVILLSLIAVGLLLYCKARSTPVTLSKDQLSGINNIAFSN

Binder	Kd	koff	kon
B1	0.0114 nM	3.18e-05 s⁻¹	2.8e+06 M⁻¹ s⁻¹
B2	0.00384 nM	5.74e-05 s⁻¹	1.5e+07 M⁻¹ s⁻¹
B3	0.00677 nM	2.07e-05 s⁻¹	3.06e+06 M⁻¹ s⁻¹
B4	0.0138 nM	2.81e-05 s⁻¹	2.03e+06 M⁻¹ s⁻¹
B5	0.0115 nM	2.89e-05 s⁻¹	2.52e+06 M⁻¹ s⁻¹
B6	0.00397 nM	6.06e-05 s⁻¹	1.53e+07 M⁻¹ s⁻¹
B7	0.0341 nM	6.02e-05 s⁻¹	1.77e+06 M⁻¹ s⁻¹
